Data reported in PMC8960874 (2022).

B1: Clone 6 mAb (human IgG1 with mouse variable regions) (antibody, V domains shown)
VH: QVQLQQSAAELARPGASVKMSCKASGYTFTSYTMHWVKQRPGQGLEWIGYINPTSGYTEYNQNFKDKTTLTADKSSSTAYMQLNSLTSEDSAVYYCAREGHRVGPAYWGQGTLVTVSA
VL: not shown
B2: Clone 2 mAb (human IgG1 with mouse variable regions) (antibody, V domains shown)
VH: EVQLQQSGPELVKPGASVKISCKASGYSFTGYSMNWMKQSPEKSLEWIGEINPSTGGTTDNQKFKAKATLTVDKSSSTAYMQLKSLTSEDSAVYYCARSRGDYWGQGTSVTVSS
VL: DIVLTQSPASLAVSLGQRATISCRASESVEYYGTSLMQWYQQKPGQPPKVLIYAASNVESGVPARFSGSGSGTDFSLNIHPVEEDDIAMYFCQQSRKVPWTFGGGTKLEIK

Tests used:
[1] = target: T1, SARS-CoV-2 spike receptor binding domain (RBD) protein with a C-terminal hexahistidine tag (SARS-CoV-2, UniProt P0DTC2 319-541); assay: BLI
[2] = target: T1, SARS-CoV-2 spike receptor binding …; assay: BLI; remark: listed apart in the source

| Binder | koff [1] [s⁻¹] | Kd [2] [pM] |
| --- | --- | --- |
| B1 | 3.65e-07 | 1.89 |
| B2 | 1.49e-07 | 1.58 |
